Patent US20240279318A1 (NANJING LEGEND BIOTECH, published 2024)

How the values were obtained:
[1] = biological target: T1, OR6C1 peptide loaded T2 cells (human, UniProt P61769 21-119); test: flow cytometry, peptide-loaded T2 cells
T1 construct: whole, on cells; also called OR6C1/T2

[2] = biological target: T2, PTP4A1 peptide loaded T2 cells (human, UniProt P61769 21-119); test: flow cytometry, peptide-loaded T2 cells
T2 construct: whole, on cells; also called PTP4A1-pulsed T2 cells

[3] = biological target: T3, RP1 peptide loaded T2 cells (human, UniProt P61769 21-119); test: flow cytometry, peptide-loaded T2 cells
T3 construct: whole, on cells; also called RP1/T2

[4] = biological target: T4, RCL1 peptide loaded T2 cells (human); test: flow cytometry, peptide-loaded T2 cells
T4 construct: whole, on cells; also called RCL1/T2

[5] = biological target: T5, ZNF566 peptide loaded T2 cells (human, UniProt P61769 21-119); test: flow cytometry, peptide-loaded T2 cells
T5 construct: whole, on cells; also called ZNF566/T2

[6] = biological target: T6, ARNTL peptide loaded T2 cells (human, UniProt P61769 21-119); test: flow cytometry, peptide-loaded T2 cells
T6 construct: whole, on cells; also called ARNTL/T2

[7] = biological target: T7, ATG9A peptide loaded T2 cells (human, UniProt P61769 21-119); test: flow cytometry, peptide-loaded T2 cells
T7 construct: whole, on cells; also called ATG9A/T2

[8] = biological target: T8, BRCA2 peptide loaded T2 cells (human); test: flow cytometry, peptide-loaded T2 cells
T8 construct: whole, on cells; also called BRCA2/T2

[9] = biological target: T9, CDC14A peptide loaded T2 cells (human, UniProt P61769 21-119); test: flow cytometry, peptide-loaded T2 cells
T9 construct: whole, on cells; also called CDC14A/T2

[10] = biological target: T10, NR2E1 peptide loaded T2 cells (human, UniProt P61769 21-119); test: flow cytometry, peptide-loaded T2 cells
T10 construct: whole, on cells; also called NR2E1/T2

[11] = biological target: T11, OR1I1 peptide loaded T2 cells (human, UniProt P61769 21-119); test: flow cytometry, peptide-loaded T2 cells
T11 construct: whole, on cells; also called OR1I1/T2

[12] = biological target: T12, OR51B6 peptide loaded T2 cells (human, UniProt P61769 21-119); test: flow cytometry, peptide-loaded T2 cells
T12 construct: whole, on cells; also called OR51B6/T2

[13] = biological target: T13, AFP158/HLA-A*02:01 complex (human); test: SPR, antibody captured via mIgG2a-Fc, complex as analyte
T13 construct: biotinylated on the BSP by BirA for ELISA and panning; also called biotinylated AFP158/HLA-A*02:01 complex; Bio-AFP158
Description: (§1) The binding affinity between selected antibodies and AFP158/HLA-A*02:01 complex was determined by surface plasmon resonance (SPR) on a BIAcore T200 instrument (GE Healthcare). The experiment was carried out as follows. The purified sdAb/scFv-mIgG2aFc protein were captured through mIgG2a-Fc onto the sensorchip. […] On-rate (kₐ) and off-rate (kd) were calculated based on association and dissociation curve, and were used to estimate the equilibrium dissociation constant (KD).

[14] = biological target: T13, AFP158/HLA-A*02:01 complex; test: SPR, scFv-mIgG2aFc from supernatant captured, complex as analyte
Description: as §1
(§2) Humanized heavy chains and light chains were combined, and used to produce a series of humanized antibodies. These antibodies were synthesized as scFv-mIgG2aFc and transiently produced using HEK293 cells. The antibodies in the supernatant were subjected to SPR affinity assessment.

[15] = biological target: T13, AFP158/HLA-A*02:01 complex; test: as above; remark: listed apart in the source
Description: as §1, §2

[16] = biological target: T13, AFP158/HLA-A*02:01 complex; test: as above; remark: listed apart in the source
Description: as §1, §2

[17] = biological target: T13, AFP158/HLA-A*02:01 complex; test: as above; remark: listed apart in the source
Description: as §1, §2

| Binder | binding result [1] | binding result [2] | binding result [3] | binding result [4] | binding result [5] | binding result [6] | binding result [7] | binding result [8] | binding result [9] | binding result [10] | binding result [11] | binding result [12] | Kd [13] [nM] | koff [13] [s⁻¹] | kon [13] [M⁻¹ s⁻¹] | Kd [14] [nM] | koff [14] [s⁻¹] | kon [14] [M⁻¹ s⁻¹] | other results |
| --- | --- | --- | --- | --- | --- | --- | --- | --- | --- | --- | --- | --- | --- | --- | --- | --- | --- | --- | --- |
| AS167830 sdAb-mIgG2aFc (Fc fusion, not shown: a dimerising Fc or GST, i647-labelled for flow cytometry) QVKLVESGGGSVQAGGSLRLSCAASRSSEYMNRRFCMGWFRQASGKEREGVAVVYIGGGRTYYADSVKGRFTISQDNAKNTLYLQMNNLKPEDTAMYYCTADVDPYESSWSRDLGYWGQGTQVTVSS | no binding (tested: 30 or 50 nM) | no binding (tested: 30 or 50 nM) | no binding (tested: 30 or 50 nM) | no binding (tested: 30 or 50 nM) | no binding (tested: 30 or 50 nM) | no binding (tested: 30 or 50 nM) | no binding (tested: 30 or 50 nM) | no binding (tested: 30 or 50 nM) | no binding (tested: 30 or 50 nM) | no binding (tested: 30 or 50 nM) | no binding (tested: 30 or 50 nM) | no binding (tested: 30 or 50 nM) | 260 | 0.07 | 270000 | – | – | – | – |
| AS190259 VL1VH1 scFv-mIgG2aFc (Fc fusion, not shown: a dimerising Fc or GST, Humanized) SSELTQDPAVSVALGQTVRITCQGGGYYVNWYQQKPGQAPVLVIYLNTNRPSGIPDRFSGSSSGNTASLTITGAQAEDEADYYCQSADSSGNSAVFGGGTKLTVLGGGGSGGGGSGGGGSEVQLVESGGGLVQPGGSLRLSCAASGFTFSSYAMSWVRQAPGKGLEWVSAINSGGGSTYYADSVKGRFTISRDNSKNTLYLQMNSLRAEDTAVYYCAKAASGYGGSWWGDATLDAWGQGTLVTVSS | – | – | – | – | – | – | – | – | – | – | – | – | – | – | – | 200 | 0.39 | 2e+06 | – |
| AS190259 VL2VH1 scFv-mIgG2aFc (Fc fusion, not shown: a dimerising Fc or GST; small tags and cut ends) scFv: SSELTQDPAVSVALGQTVTITCQGGGYYVNWYQQKPGQAPVLVIYLNTNRPSGIPDRFSGSSSGNTASLTITGAQAEDEAAYYCQSADSSGNSAVFGGGTKLTVLGGGGSGGGGSGGGGSEVQLVESGGGLVQPGGSLRLSCAASGFTFSSYAMSWVRQAPGKGLEWVSAINSGGGSTYYADSVKGRFTISRDNSKNTLYLQMNSLRAEDTAVYYCAKAASGYGGSWWGDATLDAWGQGTLVTVSS | – | – | – | – | – | – | – | – | – | – | – | – | – | – | – | 220 | 0.3 | 1.4e+06 | – |
| AS170036 VL1VH1 scFv-mIgG2aFc (Fc fusion, not shown: a dimerising Fc or GST, Humanized) QSALTQPRSVSGSPGQSVTISCAGTSSDVGSENYVSWYQQHPGKAPKLMIYQVNKRASGVPDRFSGSKSGNTASLTISGLQAEDEADYYCASYRSSDHNIVFGGGTKLTVLGGGGSGGGGSGGGGSEVQLVESGGGLVQPGGSLRLSCAASGFTFSSYAMSWVRQAPGKGLEWVSTINSGTGSPYYADSVKGRFTISRDNSKNTLYLQMNSLRAEDTAVYYCAKNFFDGSWFLGPPAMDYWGQGTLVTVSS | no binding (tested: 30 or 50 nM) | no binding (tested: 30 or 50 nM) | no binding (tested: 30 or 50 nM) | no binding (tested: 30 or 50 nM) | no binding (tested: 30 or 50 nM) | no binding (tested: 30 or 50 nM) | no binding (tested: 30 or 50 nM) | no binding (tested: 30 or 50 nM) | no binding (tested: 30 or 50 nM) | no binding (tested: 30 or 50 nM) | no binding (tested: 30 or 50 nM) | no binding (tested: 30 or 50 nM) | – | – | – | – | – | – | Kd [15]: 360 nM; koff [15]: 0.062 s⁻¹; kon [15]: 170000 M⁻¹ s⁻¹ |
| AS179723 scFv-mIgG2aFc (Fc fusion, not shown: a dimerising Fc or GST, Camel scFv; i647-labelled for flow cytometry) QAGLTQPPSMSGSPRQSVTISCTGSSNNIGGNYVNWYQHLPGTAPKLLIYDNKNRPSGVPEQISGSKSGSSASLTITGLQAEDEGDYYCASWDDSLSAVVFGGGTHLTVLGGGGSGGGGSGGGGSEVQLVESGGGLVQPGGSLRLSCAASGFTFLNYAMSWVRQAPGKGLEWVSSNSGAGSTYYSDSVKGRFTISRDYAKNVVYLQLNSLKTEDTGMYYCAKGTNVGSWSSLHYWGQGTQVTVSS | no binding (tested: 30 or 50 nM) | no binding (tested: 30 or 50 nM) | no binding (tested: 30 or 50 nM) | no binding (tested: 30 or 50 nM) | no binding (tested: 30 or 50 nM) | no binding (tested: 30 or 50 nM) | no binding (tested: 30 or 50 nM) | no binding (tested: 30 or 50 nM) | no binding (tested: 30 or 50 nM) | no binding (tested: 30 or 50 nM) | no binding (tested: 30 or 50 nM) | no binding (tested: 30 or 50 nM) | 39 | 0.0042 | 110000 | – | – | – | Kd [16]: 28 nM; koff [16]: 0.0041 s⁻¹; kon [16]: 150000 M⁻¹ s⁻¹ |
| AS179732 scFv-mIgG2aFc (Fc fusion, not shown: a dimerising Fc or GST, Camel scFv; i647-labelled for flow cytometry) NFMLTQPPSMSGSPRQSVTISCTGSSSNIGGNYVNWYQHLPGTAPKLLIYDNSNRASGVPERFSGSKSGSSASLTITGLQAEDEGDYYCASWDDSLSGAVFGGGTHLTVLGGGGSGGGGSGGGGSEVQLVESGGGLVQPGGSLRLSCAASGFTFLNYAMSWVRQAPGKGLEWVSSNSGAGSTYYSDSVKGRFTISRDYAKNVVYLQLNSLKTEDTGMYYCAKGTNVGSWSSLHYWGQGTQVTVSS | no binding (tested: 30 or 50 nM) | no binding (tested: 30 or 50 nM) | no binding (tested: 30 or 50 nM) | no binding (tested: 30 or 50 nM) | no binding (tested: 30 or 50 nM) | no binding (tested: 30 or 50 nM) | no binding (tested: 30 or 50 nM) | no binding (tested: 30 or 50 nM) | no binding (tested: 30 or 50 nM) | no binding (tested: 30 or 50 nM) | no binding (tested: 30 or 50 nM) | no binding (tested: 30 or 50 nM) | 67 | 0.0086 | 130000 | – | – | – | Kd [17]: 47 nM; koff [17]: 0.0075 s⁻¹; kon [17]: 160000 M⁻¹ s⁻¹ |

Continued, in another order:

| binding result [1] | binding result [2] | binding result [3] | binding result [4] | binding result [5] | binding result [6] | binding result [7] | binding result [8] | binding result [9] | binding result [10] | binding result [11] | binding result [12] | Kd [13] [nM] | koff [13] [s⁻¹] | kon [13] [M⁻¹ s⁻¹] | Kd [14] [nM] | koff [14] [s⁻¹] | kon [14] [M⁻¹ s⁻¹] | Binder | other results |
| --- | --- | --- | --- | --- | --- | --- | --- | --- | --- | --- | --- | --- | --- | --- | --- | --- | --- | --- | --- |
| no binding (tested: 30 or 50 nM) | no binding (tested: 30 or 50 nM) | no binding (tested: 30 or 50 nM) | no binding (tested: 30 or 50 nM) | no binding (tested: 30 or 50 nM) | no binding (tested: 30 or 50 nM) | no binding (tested: 30 or 50 nM) | no binding (tested: 30 or 50 nM) | no binding (tested: 30 or 50 nM) | no binding (tested: 30 or 50 nM) | no binding (tested: 30 or 50 nM) | no binding (tested: 30 or 50 nM) | 71 | 0.005 | 71000 | – | – | – | AS148691 scFv-mIgG2aFc (Fc fusion, not shown: a dimerising Fc or GST, i647-labelled for flow cytometry) DIQMTQSPSSLSASVGDRVTITCRASQSVSSAVAWYQQKPGKAPKLLIYSASSLYSGVPSRFSGSRSGTDFTLTISSLQPEDFATYYCQQYYGAYLITFGQGTKVEIKGGGGSGGGGSGGGGSEVQLVESGGGLVQPGGSLRLSCAASGFNLYYSSIHWVRQAPGKGLEWVASIYSSYGSTSYADSVKGRFTISADTSKNTAYLQMNSLRAEDTAVYYCARVGPGYYGIDYWGQGTLVTVSS | – |
| – | – | – | – | – | – | – | – | – | – | – | – | 390 | 0.14 | 350000 | 220 | 0.25 | 1.1e+06 | AS190259 scFv-mIgG2aFc (Fc fusion, not shown: a dimerising Fc or GST, Camel scFv; i647-labelled for flow cytometry) QSVVTQPSAVSVSLEETATITCQGGGYYVNWYQQKPGQAPVLVIYLNTNRPSGIPERFSASKSGGTATLTINGAQAEDEAAYYCQSADSSGNSAVFGGGTHLTVLGGGGSGGGGSGGGGSQVQLVQSGGGLVQPGGSLRLSCAASGFTFSSYAMSWVRQAPGKGLEWVSAINSGGGSTYYADSVKGRFTISRDNAKNTLYLQLNSLKTEDTAMYYCAKAASGYGGSWWGDATLDAWGQGTLVTVSS | – |
